Data as given in patent US20160039945A1 (Amgen, published 2016).

Key:
[1] = target: T1, human proprotein convertase subtilisin kexin type 9 (self-cleaved, mature, secreted PCSK9) (human, UniProt Q8NBP7 31-692); experiment: solution equilibrium binding assay on BIAcore, pH 5.5
T1 construct: Self-cleavage means the pro-domain and the catalytic/C-terminal part are separate, associated polypeptides; also called huPCSK9; wild-type PCSK9
Protocol: (§1) Binding of anti-PCSK9 antibodies to human and cynomolgus monkey PCSK9 was measured by solution equilibrium binding assay on BIAcore. Antibody was immobilized on the second flow cell of a CM5 chip using amine coupling (reagents provided by GE Healthcare, Piscataway, N.J.) with an approximate density of 6000 RU. The first flow cell was used as a background control. For assay at pH 7.4, 0.1 nM or 1.0 nM of PCSK9 were mixed with serial dilutions of antibody (ranging from 0.003 nM to 50 nM) in PBS plus 0.1 mg/mL BSA, 0.005% P20 and incubated at room temperature for 4 hours. For assay at pH 5.5, 0.1 nM or 1.0 nM of PCSK9 were mixed with serial dilutions of antibody (ranging from 0.003 nM to 50 nM) in 10 mM Sodium Citrate, pH 5.5, plus 150 mM NaCl, 0.1 mg/mL BSA, 0.005% P20 and incubated at room temperature for 4 hours. Binding of free PCSK9 in the mixed solutions was measured by injecting over the antibody coated chip surface. One hundred percent PCSK9 binding signal on the antibody surface was determined in the absence of antibody in the solution. A decreased PCSK9 binding response with increasing concentrations of antibody in solution indicated PCSK9 was binding to the antibody, preventing PCSK9 from binding to the immobilized antibody surface. Plotting the PCSK9 binding signal versus antibody concentration, the KD was obtained from nonlinear regression of the competition curves using an n-curve one-site homogeneous binding model provided in the KinExA Pro software.

cynomolgus PCSK9 [2] = target: T2, cynomolgus PCSK9 (cynomolgus monkey, UniProt A8T662 31-692 (Macaca nemestrina entry), limits assumed); experiment: as above
T2 construct: also called cyPCSK9; cynomolgus monkey PCSK9
T2 sequence (A8T662 31-692 K611R limits assumed): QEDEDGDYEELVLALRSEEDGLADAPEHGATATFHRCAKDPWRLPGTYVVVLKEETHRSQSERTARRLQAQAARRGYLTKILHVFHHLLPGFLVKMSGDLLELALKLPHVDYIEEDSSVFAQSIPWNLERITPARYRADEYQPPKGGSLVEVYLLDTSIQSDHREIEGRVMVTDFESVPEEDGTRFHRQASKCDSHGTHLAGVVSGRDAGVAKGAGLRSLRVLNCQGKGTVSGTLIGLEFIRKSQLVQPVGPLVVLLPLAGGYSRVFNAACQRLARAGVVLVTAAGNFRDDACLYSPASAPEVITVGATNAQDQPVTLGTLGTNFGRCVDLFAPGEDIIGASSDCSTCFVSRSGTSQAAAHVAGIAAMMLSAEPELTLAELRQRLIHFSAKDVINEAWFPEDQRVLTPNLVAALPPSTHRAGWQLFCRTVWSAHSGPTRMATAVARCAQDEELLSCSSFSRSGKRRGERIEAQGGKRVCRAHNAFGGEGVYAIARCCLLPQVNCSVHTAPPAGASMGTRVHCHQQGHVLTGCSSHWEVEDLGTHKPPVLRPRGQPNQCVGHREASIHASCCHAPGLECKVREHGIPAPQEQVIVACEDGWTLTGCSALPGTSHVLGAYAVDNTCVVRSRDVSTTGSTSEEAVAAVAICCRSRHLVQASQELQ
Protocol: as §1

[3] = target: T1, human proprotein convertase subtilisin …; experiment: solution equilibrium binding assay on BIAcore, pH 7.4
Protocol: as §1

cynomolgus PCSK9 [4] = target: T2, cynomolgus PCSK9; experiment: as above
Protocol: as §1

[5] = target: T1, human proprotein convertase subtilisin …; experiment: ELISA, hybridoma supernatant on neutravidin-captured biotinylated PCSK9
Protocol: A primary screen for antibodies which bind to wild-type PCSK9 was performed. The primary screen was performed on two harvests. The primary screen comprised an ELISA assay and was performed using the following protocol:
The plates were coated with neutravadin at a concentration of 4 μg/ml in 1×PBS/0.05% Azide, at a volume of 40 μl/well. The plates were incubated at 4° C. overnight. The plates were then washed using a Titertek plate washer (Titertek, Huntsville, Ala.). A 3-cycle wash was performed. The plates were blocked with 90 μl of 1×PBS/1% milk and incubated approximately 30 minutes at room temperature. The plates were then washed. Again, a 3-cycle wash was performed. The capture sample was biotinylated-PCSK9, and was added at 0.9 μg/ml in 1×PBS/1% milk/10 mM Ca²⁺ at a volume of 40 μl/well. The plates were then incubated for 1 hour at room temperature. Next, the plates were washed using the Titertek plate washer operated using a 3-cycle wash. 10 μl of supernatant was transferred into 40 μl of 1×PBS/1% milk/10 mM Ca²⁺ and incubated 1.5 hours at room temperature. Again the plates were washed using the Titertek plate washer operated using a 3-cycle wash. 40 μl/well of Goat anti-Human IgG Fc HRP at a concentration of 100 ng/ml (1:4000) in 1λ PBS/1% milk/10 mM Ca²⁺ was added to the plate and was incubated 1 hour at room temperature. The plates were washed once again, using a 3-cycle wash. Finally, 40 μl/well of One-step TMB (Neogen, Lexington, Ky.) was added to the plate and quenching with 40 μl/well of 1N hydrochloric acid was performed after 30 minutes at room temperature. OD's were read immediately at 450 nm using a Titertek plate reader. Positive binding was determined as 3 times the average of signal of the negative control which was hybridoma supernatant.

[6] = target: T1, human proprotein convertase subtilisin …; experiment: competition ELISA, supernatant pre-incubated with b-PCSK9; competitor 26H5 coated on plate
Protocol: (§2) Hybridoma supernatants were then assayed for direct binding competition. […] The next day each hybridoma supernatant was preincubated with 100 ng/ml b-PCSK9 at a 1:5 final dilution. These samples were then incubated for 2 hours at RT. The precoated antibody capture plates were then washed and the pre-incubated samples of hybridoma Antibody supernatants and B-PCSK9 were added to the plates and incubated for 1 hour at room temperature. Detection of bound b-PCSK9 was done with streptavidin HRP (Thermo P21126) at 500 ng/ml in 1×PBS/1% non fat skim milk. Incubated for 1 hour then added chromogenic substrate TMB, 3,3′,5,5′-tetramethylbenzidine, 40 ul/well incubated anywhere from 15 minutes to 60 minutes depending on OD then stopped with one molar hydrochloric acid. Optical density at 450 nm read on Multiskan Ascent reader. A % Inhibition was then calculated by comparing the amount of bound b-PCSK9 after preincubation with anti-PCSK9 hybridoma sups versus negative control wells using irrelevant hybridoma supernatants. % Inhibition=1−(OD of Ab supernatant/B-PCSK9/OD of Neg. control supernatant/B-PCSK9).

[7] = target: T1, human proprotein convertase subtilisin …; experiment: competition ELISA, supernatant pre-incubated with b-PCSK9; competitor 31H4 coated on plate
Protocol: as §2

human D374Y PCSK9 mutant = target: T3, human D374Y PCSK9 mutant (human, UniProt Q8NBP7 31-692, limits assumed); experiment: receptor-ligand blocking ELISA: supernatant pre-incubated with biotinylated D374Y PCSK9, binding to captured LDLR
T3 construct: It was biotinylated in the assay; also called biotinylated human D374Y PCSK9
T3 sequence (Q8NBP7 other isoform, or with tags, fused parts or gaps D374Y D374Y limits assumed): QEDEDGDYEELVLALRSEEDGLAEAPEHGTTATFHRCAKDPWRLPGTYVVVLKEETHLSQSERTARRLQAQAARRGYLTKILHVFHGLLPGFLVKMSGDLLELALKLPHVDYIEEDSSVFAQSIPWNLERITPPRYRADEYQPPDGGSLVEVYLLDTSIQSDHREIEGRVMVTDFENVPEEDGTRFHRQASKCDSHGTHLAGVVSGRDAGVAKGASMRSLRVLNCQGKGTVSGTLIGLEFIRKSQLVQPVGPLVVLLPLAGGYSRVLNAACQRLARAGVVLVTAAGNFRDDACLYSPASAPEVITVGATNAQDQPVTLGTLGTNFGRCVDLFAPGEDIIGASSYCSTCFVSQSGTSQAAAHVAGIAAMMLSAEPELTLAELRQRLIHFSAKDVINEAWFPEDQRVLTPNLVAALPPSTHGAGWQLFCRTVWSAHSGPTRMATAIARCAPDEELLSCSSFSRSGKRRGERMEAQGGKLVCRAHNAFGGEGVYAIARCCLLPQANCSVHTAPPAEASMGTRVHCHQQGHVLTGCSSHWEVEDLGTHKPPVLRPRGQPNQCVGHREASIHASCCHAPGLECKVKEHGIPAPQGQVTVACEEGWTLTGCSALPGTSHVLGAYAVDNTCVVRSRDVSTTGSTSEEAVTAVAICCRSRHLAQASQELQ
Protocol: The plates were coated with goat anti-LDLR (R&D Cat #AF2148) at 2 μg/ml in 1λPBS/0.05% Azide at a volume of 40 μl/well. The plates were incubated at 4° C. overnight. The plates were then washed using a Titertek plate washer (Titertek, Huntsville, Ala.). A 3-cycle wash was performed. The plates were blocked with 90 μl of 1λ PBS/1% milk and incubated approximately 30 minutes at room temperature. The plates were then washed using the Titertek plate washer. A 3-cycle wash was performed. […] The plates were then incubated for 1 hour and 10 minutes at room temperature. […] The plates were then pre-incubated for about 1 hour and 30 minutes at room temperature. Next, the plates were washed using the Titertek plate washer operated using a 3-cycle wash. 50 μl/well of the pre-incubated mixture was transferred onto the LDLR coated ELISA plates and incubated for 1 hour at room temperature. To detect LDLR-bound b-PCSK9, 40 μl/well streptavidin HRP at 500 ng/ml in assay diluent was added to the plates. The plates were incubated for 1 hour at room temperature. The plates were again washed using a Titertek plate washer. A 3-cycle wash was performed. Finally, 40 μl/well of One-step TMB (Neogen, Lexington, Ky.) was added to the plate and was quenched with 40 μl/well of 1N hydrochloric acid after 30 minutes at room temperature. OD's were read immediately at 450 nm using a Titertek plate reader.

T1 sequence (Q8NBP7 other isoform, or with tags, fused parts or gaps): as the sequence (Q8NBP7 other isoform, or with tags, fused parts or gaps D374Y D374Y limits assumed) above, with Y344D counted along it

Row | Kd [1] | Kd (cynomolgus PCSK9 [2]) | Kd [3] | Kd (cynomolgus PCSK9 [4]) | Early primary screen OD [5] | Late primary screen OD [5] | % inhibition of 26H5 Binding [6] | % inhibition of 31H4 Binding [7] | % R-L Inhibition (human D374Y PCSK9 mutant) | Binder
1 | 0.018 nM | 0.022 nM | 7 pM | 0.011 nM | 4.03 OD (450 nm) | 3.46 OD (450 nm) | 90% | 79% | 93% | 103B7 (antibody, human IgG2, lambda, V domains shown, Fully human XenoMouse antibody; also called L2/H2; VL2/VH1) VH: QVQLVQSGAEVKKPGASVKVSCKASGYTFSSYGISWVRQAPGQGLEWMGWISAYNGNTNYAQKFQGRVTMTTDTSTSTAYMELRSLRSDDTAVYYCAREVRLAARPDHYYGMDVWGQGTTVTVSS VL: QSVLTQPPSVSAAPGQKVTISCSGSSSNIGINYVSWYQLLPGTAPKLLIYDNNKRPLGIPDRFSGSKSGTSVTLGITGLQTGDEADYFCGTWDSNLSAWVFGGGTKLTVLG
2 | 0.12 nM | 3.1 nM | 67 pM | 1.5 nM | 3.3 OD (450 nm) | 3.56 OD (450 nm) | 90% | 89% | 92% | 131D12 (antibody, human IgG2, lambda, V domains shown, Fully human XenoMouse antibody; also called L3/H3; VL3/VH2) VH: QGQLVESGGGVVQPGRSLRLSCAASGFTFSSYGMHWVRQAPGKGLEWVAVIWHDGSNKYYADSVKGRFTISRDNSKNTLYLQMNSLRAEDTAVYYCARVVPDNWNQDYYGMDVWGQGTTVTVSS VL: SYELTQPPSVSVSPGQTASITCSGDKLGDKYACWFQQKPGQSPVLVIYQDSKRPFGIPDRFSGSKSGNTATLTISGTQAMEEADYYCQAWDSSTAVFGGGTKLTVLG

Second part, the binder before the results:

Row | Binder | Kd [1] | Kd (cynomolgus PCSK9 [2]) | Kd [3] | Kd (cynomolgus PCSK9 [4]) | Early primary screen OD [5] | Late primary screen OD [5] | % inhibition of 26H5 Binding [6] | % inhibition of 31H4 Binding [7] | % R-L Inhibition (human D374Y PCSK9 mutant)
3 | 101F7 (antibody, human IgG2, lambda, V domains shown, Fully human XenoMouse antibody; also called L1/H1; VL1/VH1) VH: QVQLVQSGAEVKKPGASVKVSCKASGYTFSSYGISWVRQAPGQGLEWMGWISAYNGNTNYAQKFQGRVTMTTDTSTSTAYMELRSLRSDDTAVYYCAREVRLAARPDHYYGMDVWGQGTTVTVSS VL: QSVLTQPPSVSAAPGQKVTISCSGSSSNIGINYVSWYQLLPGTAPKLLIYDNNKRPLGIPDRFSGSKSGTSATLGITGLQTGDETDYYCGTWDSSLSAWVFGGGTKLTVLG | 0.016 nM | 0.008 nM | 6 pM | 0.008 nM | 3.45 OD (450 nm) | 3.91 OD (450 nm) | 92% | 82% | 94%
4 | 27B2 (antibody, human IgG2, lambda, V domains shown, Fully human XenoMouse antibody; Tested as hybridoma supernatant, the VH ends '...TTVTV' without the final 'SS'; also called 27B2.6; L4/H4) VH: QVQLVESGGGVVQPGRSLRLSCAASGFTFSSYGMHWVRQAPGKGLEWVAAIWYDGSNKYYAESVKGRFTISRDNSKYTLYLQVNSLRAEDTAVYYCARRGGLAARPGGLDVWGQGTTVTVAS VL: SYELTQPPSVSVSPGQTISISCSGDKLGDKNACWYQQKPGQSPGLVIYQDSKRPLGIPARFSGSNSGNTATLTISGTQAMDEADYYCQAWDISTVVFGGGTKLTVLG |  |  |  |  | 4.9 OD (450 nm) | 4.2 OD (450 nm) |  |  | 93%
